B1: huSP34.3.10 Fab-HF (Fab, V domains shown)
VH: EVQLVESGGGLVQPGGSLRLSCAASGFTFNTYAMNWVRQAPGKGLEWVGRIRSKYNNYATYYADSVKGRFTISRDDSKNSLYLQMNSLRTEDTAVYYCVRHGNFGHSYVSWFAYWGQGTLVTVSS
VL: QAVVTQPPSLTVSPGGTVTLTCGSSTGAVTTGHYANWVQQKPGQAPRGLIGGTNKRAPGVPARFSGSLSGGKAALTISGAQPEDEAEYYCALWYSNRWVFGGGTKLTVL
notes: also called HC3+LC10
B2: huSP34.3.8 Fab-HF (Fab, V domains shown)
VH: EVQLVESGGGLVQPGGSLRLSCAASGFTFNTYAMNWVRQAPGKGLEWVGRIRSKYNNYATYYADSVKGRFTISRDDSKNSLYLQMNSLRTEDTAVYYCVRHGNFGHSYVSWFAYWGQGTLVTVSS
VL: QAVVTQEPSLTVSPGGTVTLTCGSSTGAVTTGHYANWVQQKPGQAPRGLIGGTNKRAPGVPARFSGSLLGGKAALTISGAQPEDEAEYYCALWYSNRWVFGGGTKLTVL
notes: also called HC3+LC8
B3: huSP34.3.7 Fab-HF (Fab, V domains shown)
VH: EVQLVESGGGLVQPGGSLRLSCAASGFTFNTYAMNWVRQAPGKGLEWVGRIRSKYNNYATYYADSVKGRFTISRDDSKNSLYLQMNSLRTEDTAVYYCVRHGNFGHSYVSWFAYWGQGTLVTVSS
VL: QAVVTQEPSLTVSPGGTVTLTCRSSTGAVTTGHYANWVQQKPGQAPRGLIGGTNKRAPGVPARFSGSLLGGKAALTISGAQPEDEAEYYCALWYSNLWVFGGGTKLTVL
notes: also called HC3+LC7
B4: huSP34.12.9 Fab-HF (Fab, V domains shown)
VH: EVQLVESGGGLVQPGGSLRLSCAASGFTFSTYAMNWVRQAPGKGLEWVARIRSKYNNYATYYAASVKGRFTISRDDSKNSLYLQMNSLRTEDTAVYYCVRHGNFGHSYVSWFAYWGQGTLVTVSS
VL: QAVVTQPPSLTVSPGGTVTLTCGSSTGAVTTGHYANWVQQKPGQAPRGLIGGTNKRAPGVPARFSGSLSGGKAALTISGAQPEDEAEYYCALWYSNLWVFGGGTKLTVL
notes: also called HC12+LC9
B5: huSP34.11.10 Fab-HF (Fab, V domains shown)
VH: EVQLVESGGGLVQPGGSLRLSCAASGFTFSTYAMNWVRQAPGKGLEWVGRIRSKYNNYATYYAASVKGRFTISRDDSKNSLYLQMNSLRTEDTAVYYCVRHGNFGHSYVSWFAYWGQGTLVTVSS
VL: QAVVTQPPSLTVSPGGTVTLTCGSSTGAVTTGHYANWVQQKPGQAPRGLIGGTNKRAPGVPARFSGSLSGGKAALTISGAQPEDEAEYYCALWYSNRWVFGGGTKLTVL
notes: also called HC11+LC10
B6: huSP34.12.7 Fab-HF (Fab, V domains shown)
VH: EVQLVESGGGLVQPGGSLRLSCAASGFTFSTYAMNWVRQAPGKGLEWVARIRSKYNNYATYYAASVKGRFTISRDDSKNSLYLQMNSLRTEDTAVYYCVRHGNFGHSYVSWFAYWGQGTLVTVSS
VL: QAVVTQEPSLTVSPGGTVTLTCRSSTGAVTTGHYANWVQQKPGQAPRGLIGGTNKRAPGVPARFSGSLLGGKAALTISGAQPEDEAEYYCALWYSNLWVFGGGTKLTVL
notes: also called HC12+LC7
B7: huSP34.11.9 Fab-HF (Fab, V domains shown)
VH: EVQLVESGGGLVQPGGSLRLSCAASGFTFSTYAMNWVRQAPGKGLEWVGRIRSKYNNYATYYAASVKGRFTISRDDSKNSLYLQMNSLRTEDTAVYYCVRHGNFGHSYVSWFAYWGQGTLVTVSS
VL: QAVVTQPPSLTVSPGGTVTLTCGSSTGAVTTGHYANWVQQKPGQAPRGLIGGTNKRAPGVPARFSGSLSGGKAALTISGAQPEDEAEYYCALWYSNLWVFGGGTKLTVL
notes: also called HC11+LC9
B8: huSP34.12.10 Fab-HF (Fab, V domains shown)
VH: EVQLVESGGGLVQPGGSLRLSCAASGFTFSTYAMNWVRQAPGKGLEWVARIRSKYNNYATYYAASVKGRFTISRDDSKNSLYLQMNSLRTEDTAVYYCVRHGNFGHSYVSWFAYWGQGTLVTVSS
VL: QAVVTQPPSLTVSPGGTVTLTCGSSTGAVTTGHYANWVQQKPGQAPRGLIGGTNKRAPGVPARFSGSLSGGKAALTISGAQPEDEAEYYCALWYSNRWVFGGGTKLTVL
notes: also called HC12+LC10
B9: huSP34.13.9 Fab-HF (Fab, V domains shown)
VH: EVQLVESGGGLVQPGGSLRLSCAASGFTFSTYAMNWVRQAPGKGLEWVGRIRSKYNNYATYYAASVKGRFTISRDDSKNTLYLQMNSLRTEDTAVYYCVRHGNFGHSYVSWFAYWGQGTLVTVSS
VL: QAVVTQPPSLTVSPGGTVTLTCGSSTGAVTTGHYANWVQQKPGQAPRGLIGGTNKRAPGVPARFSGSLSGGKAALTISGAQPEDEAEYYCALWYSNLWVFGGGTKLTVL
notes: also called HC13+LC9
B10: huSP34.3.9 Fab-HF (Fab, V domains shown)
VH: EVQLVESGGGLVQPGGSLRLSCAASGFTFNTYAMNWVRQAPGKGLEWVGRIRSKYNNYATYYADSVKGRFTISRDDSKNSLYLQMNSLRTEDTAVYYCVRHGNFGHSYVSWFAYWGQGTLVTVSS
VL: QAVVTQPPSLTVSPGGTVTLTCGSSTGAVTTGHYANWVQQKPGQAPRGLIGGTNKRAPGVPARFSGSLSGGKAALTISGAQPEDEAEYYCALWYSNLWVFGGGTKLTVL
notes: also called HC3+LC9
B11: huSP34.13.10 Fab-HF (Fab, V domains shown)
VH: EVQLVESGGGLVQPGGSLRLSCAASGFTFSTYAMNWVRQAPGKGLEWVGRIRSKYNNYATYYAASVKGRFTISRDDSKNTLYLQMNSLRTEDTAVYYCVRHGNFGHSYVSWFAYWGQGTLVTVSS
VL: QAVVTQPPSLTVSPGGTVTLTCGSSTGAVTTGHYANWVQQKPGQAPRGLIGGTNKRAPGVPARFSGSLSGGKAALTISGAQPEDEAEYYCALWYSNRWVFGGGTKLTVL
notes: also called HC13+LC10
B12: huSP34.13.7 Fab-HF (Fab, V domains shown)
VH: EVQLVESGGGLVQPGGSLRLSCAASGFTFSTYAMNWVRQAPGKGLEWVGRIRSKYNNYATYYAASVKGRFTISRDDSKNTLYLQMNSLRTEDTAVYYCVRHGNFGHSYVSWFAYWGQGTLVTVSS
VL: QAVVTQEPSLTVSPGGTVTLTCRSSTGAVTTGHYANWVQQKPGQAPRGLIGGTNKRAPGVPARFSGSLLGGKAALTISGAQPEDEAEYYCALWYSNLWVFGGGTKLTVL
notes: also called HC13+LC7
B13: huSP34.13.8 Fab-HF (Fab, V domains shown)
VH: EVQLVESGGGLVQPGGSLRLSCAASGFTFSTYAMNWVRQAPGKGLEWVGRIRSKYNNYATYYAASVKGRFTISRDDSKNTLYLQMNSLRTEDTAVYYCVRHGNFGHSYVSWFAYWGQGTLVTVSS
VL: QAVVTQEPSLTVSPGGTVTLTCGSSTGAVTTGHYANWVQQKPGQAPRGLIGGTNKRAPGVPARFSGSLLGGKAALTISGAQPEDEAEYYCALWYSNRWVFGGGTKLTVL
notes: also called HC13+LC8
B14: huSP34.11.8 Fab-HF (Fab, V domains shown)
VH: EVQLVESGGGLVQPGGSLRLSCAASGFTFSTYAMNWVRQAPGKGLEWVGRIRSKYNNYATYYAASVKGRFTISRDDSKNSLYLQMNSLRTEDTAVYYCVRHGNFGHSYVSWFAYWGQGTLVTVSS
VL: QAVVTQEPSLTVSPGGTVTLTCGSSTGAVTTGHYANWVQQKPGQAPRGLIGGTNKRAPGVPARFSGSLLGGKAALTISGAQPEDEAEYYCALWYSNRWVFGGGTKLTVL
notes: also called HC11+LC8
B15: huSP34.11.7 Fab-HF (Fab, V domains shown)
VH: EVQLVESGGGLVQPGGSLRLSCAASGFTFSTYAMNWVRQAPGKGLEWVGRIRSKYNNYATYYAASVKGRFTISRDDSKNSLYLQMNSLRTEDTAVYYCVRHGNFGHSYVSWFAYWGQGTLVTVSS
VL: QAVVTQEPSLTVSPGGTVTLTCRSSTGAVTTGHYANWVQQKPGQAPRGLIGGTNKRAPGVPARFSGSLLGGKAALTISGAQPEDEAEYYCALWYSNLWVFGGGTKLTVL
notes: also called HC11+LC7
B16: huSP34.12.8 Fab-HF (Fab, V domains shown)
VH: EVQLVESGGGLVQPGGSLRLSCAASGFTFSTYAMNWVRQAPGKGLEWVARIRSKYNNYATYYAASVKGRFTISRDDSKNSLYLQMNSLRTEDTAVYYCVRHGNFGHSYVSWFAYWGQGTLVTVSS
VL: QAVVTQEPSLTVSPGGTVTLTCGSSTGAVTTGHYANWVQQKPGQAPRGLIGGTNKRAPGVPARFSGSLLGGKAALTISGAQPEDEAEYYCALWYSNRWVFGGGTKLTVL
notes: also called HC12+LC8
B17: mSP34 Fab-HF v2 (Fab, V domains shown)
VH: EVKLLESGGGLVQPKGSLKLSCAASGFTFNTYAMNWVRQAPGKGLEWVARIRSKYNNYATYYADSVKDRFTISRDDSQSILYLQMNNLKTEDTAMYYCVRHGNFGNSYVSWFAYWGQGTLVTVSA
VL: QAVVTQESALTTSPGETVTLTCRSSTGAVTTSNYANWVQEKPDHLFTGLIGGTNKRAPGVPARFSGSLIGDKAALTITGAQTEDEAIYFCALWYSNLWVFGGGTKLTVLG

The term Kd denotes the free concentration of one partner at which half of the binding sites on the other are occupied at equilibrium, for simple one-to-one binding. A high value points to a looser complex. One may read the koff as the first-order rate constant of dissociation. Read a high koff as fast dissociation. As a reminder, the kon is a measure of how fast the partners come together. Read a high kon as fast association.

In the first assay the target is T1, biotinylated CD3 epsilon:delta heterodimer protein (Amsbio AMS.CDD-H52WO) (Homo sapiens (Human), UniProt P07766 23-126; P04234 22-105).
T1 construct: also called CD3 heterodimer
Kind of assay: BLI (Octet), CD3 on SA sensor, Fab analyte. A general note: BLI is a label-free optical method that tracks binding on a fibre tip over time.
Description: (§1) The CD3 binding kinetics of the purified huSP34 Fabs were determined using OctetRed384 (Pall ForteBio, CA) biolayer interferometry (BLI). […] Streptavidin (SA) coated biosensors tips (Pall ForteBio, CA) were used to capture biotinylated CD3 epsilon: delta heterodimer and typical immobilization levels captured on the SA sensors were 1 nm which approximately translates to 300 ng/ml of captured protein. For kinetic measurements biosensors were first pre-wetted with assay buffer for 10 minutes to remove protective sucrose coating followed by the recommended regeneration conditions for standardization of the biosensor surface for the experiment. In order to load the biosensors with antigen, 300 ng/ml of biotinylated CD3 epsilon: delta heterodimer protein (Amsbio AMS.CDD-H52WO) was immobilized on the SA sensor for 900 seconds. The CD3 loaded biosensors were then blocked with 20 ug/ml biocytin (sigma) for 200 seconds and then dipped into assay buffer containing wells for 200 seconds to remove any non-specific protein or unbound CD3 heterodimer.
(§2) CD3 loaded and biocytin blocked biosensors were then transferred into fresh assay buffer for 200 seconds to collect a baseline read. Kinetic measurements for anti-CD3 Fab and bispecific antibody binding were performed by dipping the CD3-coated biosensors into wells containing multiple concentrations of Fab or Ab (0-300 nM) for 100 seconds followed by a 300 second dissociation time by transferring the biosensors into assay buffer containing wells. The CD3 loaded sensors were then regenerated for the next kinetic measurement. Biosensors were generated by removing bound Fabs or Ab from immobilized CD3 on SA biosensors. Regeneration conditions used consisted of 3 cycles of 5 seconds of dipping the biosensors in Regeneration Buffer (10 mM Glycine HCl pH 1.5) followed by Assay Buffer (10 mM sodium phosphate pH 7.4, 140 mM Sodium Chloride, 0.005% Tween20 with 0.2% BSA).
B1 showed a Kd of 2.3 nM, a koff of 0.000235 s⁻¹ and a kon of 142000 M⁻¹ s⁻¹.

B2 gave a Kd of 1.9 nM, a koff of 0.00024 s⁻¹ and a kon of 131000 M⁻¹ s⁻¹.

A further assay deals with T1, biotinylated CD3 epsilon:delta …. The assay is described as follows: BLI (Octet), CD3 on SA sensor, Fab analyte. This is another data set of the same source.
Description: as §1, §2
In turn, B3 gave a Kd of 5.6 nM, a koff of 0.00168 s⁻¹ and a kon of 323000 M⁻¹ s⁻¹.

As for B4, the Kd worked out at 3.2 nM, the koff turned out to be 0.00335 s⁻¹ and the kon was 1.04e+06 M⁻¹ s⁻¹.

Molecule B5 came in with a Kd of 2.8 nM, a koff of 0.00192 s⁻¹ and a kon of 697000 M⁻¹ s⁻¹.

B6 registered a Kd of 2.7 nM, a koff of 0.00244 s⁻¹ and a kon of 966000 M⁻¹ s⁻¹.

Regarding B1, the Kd came to 2 nM, the koff is 0.00137 s⁻¹ and the kon stood at 683000 M⁻¹ s⁻¹.

Take B7: the Kd is 3.4 nM, the koff turned out to be 0.00284 s⁻¹ and the kon came to 898000 M⁻¹ s⁻¹.

Consider B8, for which the Kd worked out at 4.2 nM, the koff turned out to be 0.00205 s⁻¹ and the kon was found to be 501000 M⁻¹ s⁻¹.

In the case of B2, the affinity, expressed as Kd, was 4.4 nM; the koff turned out to be 0.00113 s⁻¹; the kon came to 255000 M⁻¹ s⁻¹.

Regarding B9, binding was characterised by a dissociation constant (Kd) of 2.7 nM, the koff amounted to 0.00361 s⁻¹ and the kon was 1.38e+06 M⁻¹ s⁻¹.

B10 displayed a Kd of 3.5 nM, a koff of 0.00221 s⁻¹ and a kon of 632000 M⁻¹ s⁻¹.

Take B11: binding was put at a Kd of 1.7 nM, the koff worked out at 0.00204 s⁻¹ and the kon was determined as 1.36e+06 M⁻¹ s⁻¹.

Molecule B12 gave a Kd of 2.8 nM, a koff of 0.00275 s⁻¹ and a kon of 1.01e+06 M⁻¹ s⁻¹.

In the case of B13, the Kd was determined as 2.5 nM, the koff was 0.00216 s⁻¹ and the kon worked out at 933000 M⁻¹ s⁻¹.

B14 had a Kd of 2.8 nM, a koff of 0.00165 s⁻¹ and an association rate constant (kon) of 610000 M⁻¹ s⁻¹.

In the case of B15, binding was put at a Kd of 3.6 nM, the off-rate (koff) is 0.00212 s⁻¹ and the kon turned out to be 613000 M⁻¹ s⁻¹.

As for B16, the affinity, expressed as Kd, was 3.4 nM; the koff was 0.00166 s⁻¹; the kon was determined as 493000 M⁻¹ s⁻¹.

For B17, the Kd was determined as 5.2 nM, the koff is 0.00266 s⁻¹ and the kon came to 532000 M⁻¹ s⁻¹.

(Values after patent US20230056252A1 (Gilead, published 2023).)
